Data on nine molecules can be found in patent US20190112365A1 (EISAI R AND D MANAGEMENT, published 2019).

Test [1] has as its target T1, Human Tau 2N4R, wild type, recombinant full length (human, UniProt P10636 2-758).
T1 construct: Full length 2N4R isoform; monomer in SPR and ELISA; heparin-induced aggregates or seeds in the functional assays; also called Tau441; Tau-441
Nature of the test: SPR BIAcore, mAb captured by anti-human IgG, Tau flowed, 1:1 Langmuir. The procedure:
(§1) All experiments were performed using a BIAcore™ T-100 instrument (GE Healthcare). 10 μL anti-human IgG (monoclonal mouse anti-human Fc) from human antibody capture kit (GE Healthcare) was diluted to 25 μL/mL in 200 μL final immobilization buffer (10 mM sodium acetate, pH 5.0). The flow rate was set to 5 μL/min, flowpath 1. Fifty μL N-hydroxysuccinamide (NETS) and 50 μL 1-ethyl-3-(3-dimethylaminopropyl) carbidiimide (EDC) were mixed and injected for 420 sec to activate the CM5 chip surface. The diluted antibody was injected for 360 seconds followed by 1 M ethanolamine for 420 seconds. The flowpath was then switched to flowpath 2. A new EDC/NHS mixture was prepared and the procedure was repeated for flow cell 2. The surface was conditioned by 2 injections of 30 sec using flowpath 1, 2 at 30 μL/min of 3M MgCl₂. For the anti-mouse surface, 10 μL anti-mouse IgG (polyclonal rabbit anti-mouse IgG) from mouse antibody capture kit (GE Healthcare) was diluted to 30 μL/mL in 324 μL final immobilization buffer (10 mM sodium acetate, pH 5.0). The flow rate was set to 5 μL/min, flowpath 3. Fifty μL NHS and 50 μL EDC were mixed and injected for 420 sec to activate the chip surface. The diluted antibody was injected for 420 sec. 1 M ethanolamine was injected for 420 sec. Flow path was switched to flowpath 4. A new EDC/NHS mixture was prepared and the procedure was repeated for flow cell 4. The surface was conditioned by 2 injections of 30 sec using flowpath 3, 4 at 30 μL/min of 10 mM glycine, pH 1.7.
(§2) Binding of humanized and mouse antibodies were analyzed by BIAcore™ to determine their relative association rates (ka), dissociation rates (kd), and equilibrium binding constants (KD). Anti-mouse or anti-human antibodies were immobilized on a CM5 chip and sample mAbs were captured on the chip. 2N4R Tau was flowed over the chip and binding observed. The binding constants kₐ, kd, and KD were determined using a 1:1 Langmuir fitting model. Both 7G6-HCzu12-based mAbs had similar kₐ and kd values (Table 8). However, the kₐ of 7G6-HCzu11 was decreased, though the kd was unaffected. Therefore, human residues in the Vh3 framework impact binding to Tau.
In general terms: SPR reads the build-up and loss of mass on a sensor chip optically.

For test [2], the target named is T1, Human Tau 2N4R, wild type, recombinant …. The experiment in a line: SPR BIAcore, mAb captured by anti-mouse IgG, Tau flowed, 1:1 Langmuir. The protocol:
as §1, §2

For test [3] the target is unchanged. The description is as above. The protocol: as §1, §2
The source holds these as a separate data set.

T1 sequence (P10636 other isoform, or with tags, fused parts or gaps limits assumed): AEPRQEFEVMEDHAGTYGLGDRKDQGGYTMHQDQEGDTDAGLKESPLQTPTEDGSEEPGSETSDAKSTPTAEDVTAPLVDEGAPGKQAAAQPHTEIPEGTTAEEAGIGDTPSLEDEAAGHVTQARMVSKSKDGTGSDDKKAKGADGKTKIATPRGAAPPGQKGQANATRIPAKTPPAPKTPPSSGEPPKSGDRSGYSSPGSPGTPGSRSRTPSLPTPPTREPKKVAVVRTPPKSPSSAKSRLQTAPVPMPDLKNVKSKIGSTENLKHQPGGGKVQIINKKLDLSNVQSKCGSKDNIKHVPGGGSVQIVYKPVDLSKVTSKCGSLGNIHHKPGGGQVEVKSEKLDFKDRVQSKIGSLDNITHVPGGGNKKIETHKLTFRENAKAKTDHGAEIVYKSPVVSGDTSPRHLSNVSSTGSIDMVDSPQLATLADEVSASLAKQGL

B1: 7G6-HCzu13-LCzu12 (antibody, human IgG1, kappa, V domains shown)
VH: EVQLLESGGGLVQPGGSLRLSCAASGYTFTTYWITWVRQAPGKGLEWVGDIYPGSSICNYADSVKGRFTISVDNSKSTAYLQMNSLRAEDTAVYYCAREDGYDAWFAYWGQGTLVTVSS
VL: DVQMTQSPSSLSASVGDRVTITCRSSQSILHSNGNTYLEWYQQKPGKAPKLLICKVSNRFSGVPSRFSGSGSGTDFTLTISSLQPEDFATYYCFQGSHVPFTFGQGTKLEIKR
notes: humanized, human IgG1 kappa
As for B1, in test [1], the Kd stood at 0.168 nM, the koff came out at 0.000239 s⁻¹ and the kon is 1.42e+06 M⁻¹ s⁻¹.

B2: 7G6-HCzu15-LCzu12 (antibody, human IgG1, kappa, V domains shown)
VH: EVQLLESGGGLVQPGGSLRLSCAASGYTFTTYWITWVRQAPGKGLEWVGDIYPGSSICNYNEKFKSRFTISVDNSKNTAYLQMNSLRAEDTAVYYCAREDGYDAWFAYWGQGTLVTVSS
VL: DVQMTQSPSSLSASVGDRVTITCRSSQSILHSNGNTYLEWYQQKPGKAPKLLICKVSNRFSGVPSRFSGSGSGTDFTLTISSLQPEDFATYYCFQGSHVPFTFGQGTKLEIKR
notes: humanized, human IgG1 kappa
Turning to B2, in test [1], the Kd worked out at 0.138 nM, the koff was 0.000278 s⁻¹ and the kon came out at 2.02e+06 M⁻¹ s⁻¹.

B3: 7G6-HCzu18-LCzu12 (antibody, human IgG1, kappa, V domains shown)
VH: EVQLLESGGGLVQPGGSLRLSCAASGYTFTTYWITWVRQAPGKGLEWVSDIYPGSSICNYNEKFKSRFTISRDNSKNTLYLQMNSLRAEDTAVYYCAREDGYDAWFAYWGQGTLVTVSS
VL: DVQMTQSPSSLSASVGDRVTITCRSSQSILHSNGNTYLEWYQQKPGKAPKLLICKVSNRFSGVPSRFSGSGSGTDFTLTISSLQPEDFATYYCFQGSHVPFTFGQGTKLEIKR
notes: humanized, human IgG1 kappa
Regarding B3, in test [1], the Kd came to 0.0815 nM, the koff was 0.000128 s⁻¹ and the kon worked out at 1.57e+06 M⁻¹ s⁻¹.

B4: 7G6-HCzu16-LCzu12 (antibody, human IgG1, kappa, V domains shown)
VH: EVQLLESGGGLVQPGGSLRLSCAASGYTFTTYWITWVRQAPGKGLEWVSDIYPGSSICNYNEKFKSRFTISVDNSKNTAYLQMNSLRAEDTAVYYCAREDGYDAWFAYWGQGTLVTVSS
VL: DVQMTQSPSSLSASVGDRVTITCRSSQSILHSNGNTYLEWYQQKPGKAPKLLICKVSNRFSGVPSRFSGSGSGTDFTLTISSLQPEDFATYYCFQGSHVPFTFGQGTKLEIKR
notes: humanized, human IgG1 kappa
In the case of B4, in test [1], the Kd was 0.114 nM, the koff came out at 0.000174 s⁻¹ and the kon worked out at 1.53e+06 M⁻¹ s⁻¹.

B5: 7G6-HCzu20-LCzu12 (antibody, human IgG1, kappa, V domains shown)
VH: EVQLLESGGGLVQPGGSLRLSCAASGYTFTTYWITWVRQAPGKGLEWVSDIYPGSSICNYADKFKGRFTISRDNSKNTLYLQMNSLRAEDTAVYYCAKEDGYDAWFAYWGQGTLVTVSS
VL: DVQMTQSPSSLSASVGDRVTITCRSSQSILHSNGNTYLEWYQQKPGKAPKLLICKVSNRFSGVPSRFSGSGSGTDFTLTISSLQPEDFATYYCFQGSHVPFTFGQGTKLEIKR
notes: humanized, human IgG1 kappa
As to B5, in test [1], the dissociation constant (Kd) stood at 0.119 nM, the koff stood at 0.000136 s⁻¹ and the kon was determined as 1.14e+06 M⁻¹ s⁻¹.

B6: 7G6-HCzu14-LCzu12 (antibody, human IgG1, kappa, V domains shown)
VH: EVQLLESGGGLVQPGGSLRLSCAASGYTFTTYWITWVRQAPGKGLEWVGDIYPGSSICNYADKFKGRFTISVDNSKSTAYLQMNSLRAEDTAVYYCAREDGYDAWFAYWGQGTLVTVSS
VL: DVQMTQSPSSLSASVGDRVTITCRSSQSILHSNGNTYLEWYQQKPGKAPKLLICKVSNRFSGVPSRFSGSGSGTDFTLTISSLQPEDFATYYCFQGSHVPFTFGQGTKLEIKR
notes: humanized, human IgG1 kappa
Regarding B6, in test [1], the Kd amounted to 0.133 nM, the koff was found to be 0.000194 s⁻¹ and the kon came out at 1.46e+06 M⁻¹ s⁻¹.

B7: 7G6-HCzu19-LCzu12 (antibody, human IgG1, kappa, V domains shown)
VH: EVQLLESGGGLVQPGGSLRLSCAASGYTFTTYWITWVRQAPGKGLEWVSDIYPGSSICNYADKFKGRFTISRDNSKNTLYLQMNSLRAEDTAVYYCAREDGYDAWFAYWGQGTLVTVSS
VL: DVQMTQSPSSLSASVGDRVTITCRSSQSILHSNGNTYLEWYQQKPGKAPKLLICKVSNRFSGVPSRFSGSGSGTDFTLTISSLQPEDFATYYCFQGSHVPFTFGQGTKLEIKR
notes: humanized, human IgG1 kappa
Turning to B7, in test [1], the Kd turned out to be 0.121 nM, the koff was found to be 0.000152 s⁻¹ and the kon was determined as 1.25e+06 M⁻¹ s⁻¹.

B8: recombinant ms7G6, mouse IgG2b (antibody, V domains shown)
VH: QVQLLQPGAELVKPGASVIMSCKASGYTFTTYWITWVKQRPGQGLEWIGDIYPGSSICNYNEKFKSKATLTVDTSSSTAYMQLNSLTSEDSAVYYCAREDGYDAWFAYWGQGTLVTVSA
VL: DVLMTQTPLSLPVSLGDQASISCRSSQSILHSNGNTYLEWYLQKPGQSPKLLICKVSNRFSGVPDRFSGSGSGTDFTLKISRVEAEDLGVYYCFQGSHVPFTFGSGTKLEIK
notes: Recombinant material, mouse IgG2b
For B8, in test [2], the Kd worked out at 4.17 nM, the koff amounted to 0.00156 s⁻¹ and the kon was found to be 373000 M⁻¹ s⁻¹. Moreover, in test [3], the dissociation constant (Kd) was found to be 4.17 nM, the koff came to 0.00156 s⁻¹ and the kon is 373000 M⁻¹ s⁻¹.

B9: recombinant ms7G6, mouse IgG2a (antibody, V domains shown)
VH: QVQLLQPGAELVKPGASVIMSCKASGYTFTTYWITWVKQRPGQGLEWIGDIYPGSSICNYNEKFKSKATLTVDTSSSTAYMQLNSLTSEDSAVYYCAREDGYDAWFAYWGQGTLVTVSA
VL: DVLMTQTPLSLPVSLGDQASISCRSSQSILHSNGNTYLEWYLQKPGQSPKLLICKVSNRFSGVPDRFSGSGSGTDFTLKISRVEAEDLGVYYCFQGSHVPFTFGSGTKLEIK
notes: Recombinant material, mouse IgG2a
For B9, in test [2], the Kd came to 2.73 nM, the koff was determined as 0.0015 s⁻¹ and the kon was found to be 549000 M⁻¹ s⁻¹. Also, in test [3], the Kd came out at 2.73 nM, the koff is 0.0015 s⁻¹ and the kon stood at 549000 M⁻¹ s⁻¹.

As a reminder, the Kd is a measure of binding affinity in units of concentration. Usually koff stands for a measure of how fast the partners let go of each other. One may read the kon as a measure of how fast the partners come together.
